# B1: MEDI-573: fully human monoclonal IgG2 lambda antibody that binds IGF-2 with cross reactivity to IGF-1; hybridoma 7.159.2, ATCC PTA-7424 (antibody)
# heavy: QVQLVQSGAEVKKPGASVKVSCKASGYTFTSYDINWVRQATGQGLEWMGWMNPNSGNTGYAQKFQGRVTMTRNTSISTAYMELSSLRSEDTAVYYCARDPYYYYYGMDVWGQGTTVTVSSASTKGPSVFPLAPCSRSTSESTAALGCLVKDYFPEPVTVSWNSGALTSGVHTFPAVLQSSGLYSLSSVVTVPSSNFGTQTYTCNVDHKPSNTKVDKTVERKCCVECPPCPAPPVAGPSVFLFPPKPKDTLMISRTPEVTCVVVDVSHEDPEVQFNWYVDGVEVHNAKTKPREEQFNSTFRVVSVLTVVHQDWLNGKEYKCKVSNKGLPAPIEKTISKTKGQPREPQVYTLPPSREEMTKNQVSLTCLVKGFYPSDIAVEWESNGQPENNYKTTPPMLDSDGSFFLYSKLTVDKSRWQQGNVFSCSVMHEALHNHYTQKSLSLSPGK
# light: QSVLTQPPSVSAAPGQKVTISCSGSSSNIENNHVSWYQQLPGTAPKLLIYDNNKRPSGIPDRFSGSKSGTSATLGITGLQTGDEADYYCETWDTSLSAGRVFGGGTKLTVLGQPKAAPSVTLFPPSSEELQANKATLVCLISDFYPGAVTVAWKADSSPVKAGVETTTPSKQSNNKYAASSYLSLTPEQWKSHRSYSCQVTHEGSTVEKTVAPTECS
# Tests used:
# IR-A phosphorylation = experiment: pIR-A assay in sarcoma cells (MSD); format: cell-based
# Description: (§1) When exogenous IGF-1 or IGF-2 was added to cells, there was an induction of phosphorylation of IGF-1R and IR-A in all cells examined.
# (§2) The sarcoma lines were cultured overnight in complete medium. The following day, medium containing 0.1% charcoal stripped fetal bovine serum (FBS) was added to the cultures and the cultures incubated overnight. The next day, cells were treated with various treatments for 5 minutes. Media was removed; cells were washed and lysed with 1.0% Triton X lysis buffer with protease and phosphatase inhibitors. Approximately 8-20 μg of total protein was loaded on MSD 96-Well MULTI-SPOT plates and the level of total and phosphorylated IGF-1R, IR-A and IRS-1 protein was determined using the Insulin Signaling Panel (total protein) and Insulin Signaling Panel (phosphoprotein) Whole Cell Lysate kits according to the manufacturers protocol. The level of total and phosphorylated AKT was determined using the Phospho (Ser473)/Total AKT Assay Whole Cell Lysate kit according to manufacturer's standard protocol.
# p4EBP1 = experiment: Immunoblot of cell lysates after MEDI-573, mTORi, combination; format: cell-based; conditions: single agent, 4 hours
# Description: (§3) To examine the effect of MEDI-573, mTORi, and combination of both on IGF signaling, RD-ES, SJSA-1, and KHOS cells were treated with these agents for 4 hours. After separation of the cell lysates by gel electrophoresis, the proteins were detected by immunoblotting.
# pS6K = experiment: as above; format: cell-based; conditions: RD-ES and SJSA-1 cells, 4 hours
# Description: as §3
# KHOS cells [1] = experiment: Activation of caspase-3 and caspase-7; format: cell-based; conditions: increasing concentrations, 48 hours
# Description: (§4) To evaluate the basis for the cytotoxic effect of MEDI-573 on RD-ES, TC-71, SJSA-1, and KHOS cells, cells were treated with increasing concentrations of MEDI-573 for 48 hours and analyzed by measuring the activation of caspase-3 and caspase-7. […] (Data not shown.)
# RD-ES cells = experiment: Activation of caspase-3 and caspase-7; format: cell-based; conditions: increasing concentrations, 48 hours, compared to isotype control
# Description: as §4
# TC-71 cells = experiment: Activation of caspase-3 and caspase-7; format: cell-based; conditions: increasing concentrations, 48 hours, compared to isotype control
# Description: as §4
# SJSA-1 cells [2] = experiment: Activation of caspase-3 and caspase-7; format: cell-based; conditions: increasing concentrations, 48 hours, compared to isotype control
# Description: as §4
# [3] = tested on: engineered NIH3T3 and human tumor cell lines; experiment: In vitro growth of engineered and tumor cell lines; format: cell-based
# Source text: MEDI 573 selectively binds to human insulin-like growth factor (hIGF)-I and hIGF-2 and […]. MEDI-573 targets the IGF-1 and IGF-2 ligands and thereby inhibits IGF-mediated signal transduction. […] Furthermore, MEDI-573 has potential to achieve this without perturbing glucose homeostasis, which has been an adverse effect observed with investigational agents that target IGF 1R. The results of in vitro studies have shown that MEDI-573 inhibited both IGF-1 and IGF-2-stimulated phosphorylation of IGF 1R and that of downstream signaling proteins including Akt and MAPK in a number of engineered mouse embryonic fibroblast NIH-3T3 cell lines transfected to express human IGF-1R and either human IGF-1/-2. Furthermore, MEDI-573 inhibited autocrine phosphorylation of these signaling molecules.
# KHOS cells [4] = experiment: IGF-induced proliferation (CTG); format: cell-based
# Description: (§5) To access the effect of MEDI-573 on IGF-Induced proliferation, MEDI-573 or isotype control, was added to the cells for 30 minutes at 37° C. IGF-1 or IGF-2 was then added to the appropriate wells and incubated for 3 days. Proliferation was quantified using the CTG reagent.
# SJSA-1 cells [5] = experiment: IGF-induced proliferation (CTG); format: cell-based
# Description: as §5
# RD cells = experiment: IGF-induced proliferation (CTG); format: cell-based
# Description: as §5
# Akt phosphorylation = experiment: pAKT assay in sarcoma cells (MSD); format: cell-based; conditions: RD-ES, TC-71, SK-ES-1, and SJSA-1 cells
# Description: as §1, §2
# [6] = biological target: T1, human IGF-2 in KHOS/NP model (Homo sapiens, UniProt P01344); experiment: Free IGF ligands in xenograft tumors (ELISA); format: in vivo, mouse xenograft; conditions: up to 60 mg/kg
# T1 construct: endogenous in cells; host or cells: KHOS/NP (osteosarcoma) xenograft tumors in athymic nude mice
# T1 sequence (P01344 25-91): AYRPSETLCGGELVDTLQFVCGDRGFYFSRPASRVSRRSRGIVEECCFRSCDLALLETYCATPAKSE
# Description: (§6) Free IGF ligands were measured in xenograft tumors in untreated mice and in mice treated with different amounts of MEDI-573. […] Despite KHOS cells being unresponsive to IGF-1 and/or IGF-2 stimulation, IGF-2 levels were examined in a KHOS/NP model.
# (§7) Sarcoma cell lines were purchased from American type Culture Collection (Manassas, Va.). CellTiter-Glo reagents were obtained from Promega (Madison, Wis.). Whole cell lysate kits for pIGF-1R, pIR-A, and pAKT were purchased from Meso Scale Discovery (MSD; Rockville, Md.). ELISA kits for total IGF-1 and IGF-1R were purchased from R&D Systems (Minneapolis, Minn.). ELISA kits for total IGF-2 were purchased from Insight Genomics (Falls Church, Va.). An ELISA kit for detecting free IGF-1 and IGF-2 was developed in house. Human IGF-1 and IGF-2 were obtained from R&D Systems (Minneapolis, Minn.). Antibodies for detecting phospho-AKT, phospho-4EBP1, phospho-S6K, and GAPDH were from Cell Signaling Technology (Beverly, Mass.).
# IGF-2 in SJSA-1 tumors = biological target: T2, IGF-2 in SJSA-1 tumors (Homo sapiens, UniProt P01344); experiment: Free IGF ligands in xenograft tumors (ELISA); format: in vivo, mouse xenograft; conditions: even at the lowest dose of 10 mg/kg
# T2 construct: endogenous in cells; host or cells: SJSA-1 (osteosarcoma) xenograft tumors in athymic nude mice
# T2 sequence (P01344 25-91): as above
# Description: as §6, §7
molecule,measurement,setting,value
B1,autophosphorylation of IR-A,IR-A phosphorylation; KHOS cells,not in KHOS cells
same,autophosphorylation of IR-A,"IR-A phosphorylation; RD-ES, TC-71, SK-ES-1, and SJSA-1 cells",inhibited autophosphorylation
same,IGF-1/-2-induced activation of IR-A,"IR-A phosphorylation; pretreatment with MEDI-573, exogenous IGF-1 or IGF-2",inhibited
same,phosphorylation of 4EBP1,p4EBP1,did not have effect
same,phosphorylation of S6K,pS6K,inhibited phosphorylation of S6K
same,caspase-3/-7 activities,KHOS cells [1],No activation of caspase-3/-7 was detected
same,caspase-3/-7 activities,RD-ES cells,increased caspase-3/-7 activities in a dose-dependent manner
same,caspase-3/-7 activities,TC-71 cells,increased caspase-3/-7 activities in a dose-dependent manner
same,caspase-3/-7 activities,SJSA-1 cells [2],increased caspase-3/-7 activities in a dose-dependent manner
same,growth in vitro,[3],effectively inhibited the growth
same,IGF-1 IC50 (μM),KHOS cells [4]; KHOS cells stimulated with IGF-1,No Induction
same,IGF-2 IC50 (μM),KHOS cells [4]; KHOS cells stimulated with IGF-2,No Induction
same,effect on growth,"KHOS cells [4]; KHOS cells, with or without IGF stimulation",failed to have any significant effect
same,IGF-1 IC50 (μM),SJSA-1 cells [5]; SJSA-1 cells stimulated with IGF-1,No Induction
same,IGF-2 IC50 (μM),SJSA-1 cells [5]; SJSA-1 cells stimulated with IGF-2,No Induction
same,IGF-1 IC50 (μM),RD cells; RD cells stimulated with IGF-1,No Induction
same,IGF-2 IC50 (μM),RD cells; RD cells stimulated with IGF-2,No Induction
same,effect on growth,"RD cells; RD cells, with or without IGF stimulation",failed to have any significant effect
same,IGF-1 and IGF-2 stimulated phosphorylation of Akt,Akt phosphorylation,blocks this effect
same,autophosphorylation of Akt,Akt phosphorylation,inhibited autophosphorylation
same,human IGF-2 levels in tumors,[6],Dose-dependent inhibition
same,free IGF-2 in tumors,IGF-2 in SJSA-1 tumors,almost completely neutralized

# — patent publication US20160324962A1, “COMPOSITIONS AND METHODS FOR TREATING SARCOMA” (MEDIMMUNE, LLC, priority 2013, published 2016)
